# Results: IntAct's records for PubMed 21934712
# Target: scc4_human MAU2 (UniProt Q9Y6X3)
# Chain of UniProt Q9Y6X3 (Q9Y6X3 whole entry): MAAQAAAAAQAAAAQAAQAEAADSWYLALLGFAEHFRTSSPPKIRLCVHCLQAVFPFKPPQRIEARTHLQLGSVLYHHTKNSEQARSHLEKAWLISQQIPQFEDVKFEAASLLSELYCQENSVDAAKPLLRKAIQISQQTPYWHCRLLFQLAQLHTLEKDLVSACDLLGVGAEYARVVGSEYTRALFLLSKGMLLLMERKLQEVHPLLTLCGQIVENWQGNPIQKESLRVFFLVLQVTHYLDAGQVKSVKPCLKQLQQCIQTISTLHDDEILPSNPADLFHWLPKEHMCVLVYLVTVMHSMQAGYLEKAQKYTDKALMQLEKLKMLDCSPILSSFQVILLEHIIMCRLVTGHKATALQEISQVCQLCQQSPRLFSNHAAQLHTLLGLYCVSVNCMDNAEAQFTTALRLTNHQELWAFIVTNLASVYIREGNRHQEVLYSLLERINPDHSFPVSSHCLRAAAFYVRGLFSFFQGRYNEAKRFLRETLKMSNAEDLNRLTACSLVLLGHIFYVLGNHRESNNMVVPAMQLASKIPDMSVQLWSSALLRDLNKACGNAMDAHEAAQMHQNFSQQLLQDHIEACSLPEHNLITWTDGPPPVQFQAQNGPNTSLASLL
row,Substance,effect of a mutation on the interaction
1,"Nipped-B-like protein (Homo sapiens), Q6KC79 G15R",decreasing interaction strength
2,"Nipped-B-like protein (Homo sapiens), Q6KC79 P29Q",decreasing interaction strength
